Patent US20140087995A1 (published 2014)
Numbered stars: 1 amine (or outer) side, 2 acyl side, 3 side chain; on linkers, the order of the positions; unused ones are H or OH. Bridge positions count the residues as written; N and C are the ends. Side chains are listed from the residue outwards. Ends that are not written are not given here. * marks the point of attachment. C20 diacid = O=C(O)CCCCCCCCCCCCCCCCCCC(=O)*; γGlu = O=C(O)[C@H](CCC(=O)[*:2])N[*:1]; AEEA = NCCOCCOCC(=O)O

T1: rat amylin receptor (rat calcitonin receptor + rat RAMP 3) (rat, UniProt P32214 25-516; Q9JJ73 23-147)
T1 construct: whole, on cells; also called rAmylin-R; rat amylin 3(a) receptor
T1 sequence (looked up) 1: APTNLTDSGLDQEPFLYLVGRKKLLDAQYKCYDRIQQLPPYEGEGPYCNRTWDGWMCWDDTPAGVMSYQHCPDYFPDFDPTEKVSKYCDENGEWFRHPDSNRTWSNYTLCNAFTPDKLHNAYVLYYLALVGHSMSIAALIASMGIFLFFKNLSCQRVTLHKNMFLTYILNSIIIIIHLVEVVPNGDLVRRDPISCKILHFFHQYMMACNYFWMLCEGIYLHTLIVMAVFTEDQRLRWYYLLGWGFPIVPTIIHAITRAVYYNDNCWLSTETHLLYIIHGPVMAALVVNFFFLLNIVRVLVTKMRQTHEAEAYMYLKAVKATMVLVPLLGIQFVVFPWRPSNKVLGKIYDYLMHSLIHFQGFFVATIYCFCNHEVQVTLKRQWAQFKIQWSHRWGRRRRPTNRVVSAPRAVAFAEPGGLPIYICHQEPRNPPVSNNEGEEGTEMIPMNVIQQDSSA
T1 sequence (looked up) 2: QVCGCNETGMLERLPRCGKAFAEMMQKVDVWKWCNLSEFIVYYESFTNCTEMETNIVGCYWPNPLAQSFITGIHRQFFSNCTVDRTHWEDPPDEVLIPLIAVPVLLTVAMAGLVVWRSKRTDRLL

T2: human calcitonin receptor (human, UniProt P30988 25-474)
T2 construct: whole, on cells; also called hCTR; hCT
T2 sequence (looked up): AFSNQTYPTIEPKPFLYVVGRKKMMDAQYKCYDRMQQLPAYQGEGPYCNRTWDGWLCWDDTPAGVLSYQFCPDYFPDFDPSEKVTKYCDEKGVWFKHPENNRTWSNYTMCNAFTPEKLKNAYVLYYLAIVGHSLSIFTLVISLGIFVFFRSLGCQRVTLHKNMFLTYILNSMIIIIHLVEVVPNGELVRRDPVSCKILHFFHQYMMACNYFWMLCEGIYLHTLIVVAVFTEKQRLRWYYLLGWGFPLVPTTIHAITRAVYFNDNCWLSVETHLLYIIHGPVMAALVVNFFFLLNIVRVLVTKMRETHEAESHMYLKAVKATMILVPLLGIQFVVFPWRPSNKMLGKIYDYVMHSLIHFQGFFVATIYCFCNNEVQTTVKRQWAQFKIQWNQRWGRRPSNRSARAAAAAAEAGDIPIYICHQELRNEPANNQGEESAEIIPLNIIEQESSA

T3: rat calcitonin receptor (rat, UniProt P32214 25-516)
T3 construct: whole, on cells; also called rCTR; rat calcitonin (a) receptor
T3 sequence (looked up): T1 sequence (looked up) 1

B1: N^ε1-[2-[2-[2-[[(4S)-4-carboxy-4-(19-carboxynonadecanoylamino)butanoyl]amino]ethoxy]ethoxy]acetyl]-[Thr14,Arg17,Pro21,Pro27,Pro31]-h-amylin (peptide)
peptide: K([AEEA-γGlu-C20 diacid])CNTATCATQRLATFLRHSSPNFGAIPSSTPVGSNTY-NH2
modifications: disulfide 2-7; N-terminus assumed
SMILES: CC[C@H](C)[C@H](NC(=O)[C@H](C)NC(=O)CNC(=O)[C@H](Cc1ccccc1)NC(=O)[C@H](CC(N)=O)NC(=O)[C@@H]1CCCN1C(=O)[C@H](CO)NC(=O)[C@H](CO)NC(=O)[C@H](Cc1c[nH]cn1)NC(=O)[C@H](CCCNC(=N)N)NC(=O)[C@H](CC(C)C)NC(=O)[C@H](Cc1ccccc1)NC(=O)[C@@H](NC(=O)[C@H](C)NC(=O)[C@H](CC(C)C)NC(=O)[C@H](CCCNC(=N)N)NC(=O)[C@H](CCC(N)=O)NC(=O)[C@@H](NC(=O)[C@H](C)NC(=O)[C@@H]1CSSC[C@H](NC(=O)[C@@H](N)CCCCNC(=O)COCCOCCNC(=O)CC[C@H](NC(=O)CCCCCCCCCCCCCCCCCCC(=O)O)C(=O)O)C(=O)N[C@@H](CC(N)=O)C(=O)N[C@@H]([C@@H](C)O)C(=O)N[C@@H](C)C(=O)N[C@@H]([C@@H](C)O)C(=O)N1)[C@@H](C)O)[C@@H](C)O)C(=O)N1CCC[C@H]1C(=O)N[C@@H](CO)C(=O)N[C@@H](CO)C(=O)N[C@H](C(=O)N1CCC[C@H]1C(=O)N[C@H](C(=O)NCC(=O)N[C@@H](CO)C(=O)N[C@@H](CC(N)=O)C(=O)N[C@H](C(=O)N[C@@H](Cc1ccc(O)cc1)C(N)=O)[C@@H](C)O)C(C)C)[C@@H](C)O
notes: synthetic analogue of human amylin; also called compound 75
B2: N^ε1-[(4S)-4-carboxy-4-(19-carboxynonadecanoylamino)butanoyl]-[Arg17,Pro21,Pro27,Arg34]-h-amylin (peptide)
peptide: K([γGlu-C20 diacid])CNTATCATQRLANFLRHSSPNFGAIPSSTNVGRNTY-NH2
modifications: disulfide 2-7; N-terminus assumed
SMILES: CC[C@H](C)[C@H](NC(=O)[C@H](C)NC(=O)CNC(=O)[C@H](Cc1ccccc1)NC(=O)[C@H](CC(N)=O)NC(=O)[C@@H]1CCCN1C(=O)[C@H](CO)NC(=O)[C@H](CO)NC(=O)[C@H](Cc1c[nH]cn1)NC(=O)[C@H](CCCNC(=N)N)NC(=O)[C@H](CC(C)C)NC(=O)[C@H](Cc1ccccc1)NC(=O)[C@H](CC(N)=O)NC(=O)[C@H](C)NC(=O)[C@H](CC(C)C)NC(=O)[C@H](CCCNC(=N)N)NC(=O)[C@H](CCC(N)=O)NC(=O)[C@@H](NC(=O)[C@H](C)NC(=O)[C@@H]1CSSC[C@H](NC(=O)[C@@H](N)CCCCNC(=O)CC[C@H](NC(=O)CCCCCCCCCCCCCCCCCCC(=O)O)C(=O)O)C(=O)N[C@@H](CC(N)=O)C(=O)N[C@@H]([C@@H](C)O)C(=O)N[C@@H](C)C(=O)N[C@@H]([C@@H](C)O)C(=O)N1)[C@@H](C)O)C(=O)N1CCC[C@H]1C(=O)N[C@@H](CO)C(=O)N[C@@H](CO)C(=O)N[C@H](C(=O)N[C@@H](CC(N)=O)C(=O)N[C@H](C(=O)NCC(=O)N[C@@H](CCCNC(=N)N)C(=O)N[C@@H](CC(N)=O)C(=O)N[C@H](C(=O)N[C@@H](Cc1ccc(O)cc1)C(N)=O)[C@@H](C)O)C(C)C)[C@@H](C)O
notes: synthetic analogue of human amylin; also called compound 79
B3: N^ε1-[(4S)-4-carboxy-4-(19-carboxynonadecanoylamino)butanoyl]-[Arg14,Arg17,Pro21,Pro27]-h-amylin (peptide)
peptide: K([γGlu-C20 diacid])CNTATCATQRLARFLRHSSPNFGAIPSSTNVGSNTY-NH2
modifications: disulfide 2-7; N-terminus assumed
SMILES: CC[C@H](C)[C@H](NC(=O)[C@H](C)NC(=O)CNC(=O)[C@H](Cc1ccccc1)NC(=O)[C@H](CC(N)=O)NC(=O)[C@@H]1CCCN1C(=O)[C@H](CO)NC(=O)[C@H](CO)NC(=O)[C@H](Cc1c[nH]cn1)NC(=O)[C@H](CCCNC(=N)N)NC(=O)[C@H](CC(C)C)NC(=O)[C@H](Cc1ccccc1)NC(=O)[C@H](CCCNC(=N)N)NC(=O)[C@H](C)NC(=O)[C@H](CC(C)C)NC(=O)[C@H](CCCNC(=N)N)NC(=O)[C@H](CCC(N)=O)NC(=O)[C@@H](NC(=O)[C@H](C)NC(=O)[C@@H]1CSSC[C@H](NC(=O)[C@@H](N)CCCCNC(=O)CC[C@H](NC(=O)CCCCCCCCCCCCCCCCCCC(=O)O)C(=O)O)C(=O)N[C@@H](CC(N)=O)C(=O)N[C@@H]([C@@H](C)O)C(=O)N[C@@H](C)C(=O)N[C@@H]([C@@H](C)O)C(=O)N1)[C@@H](C)O)C(=O)N1CCC[C@H]1C(=O)N[C@@H](CO)C(=O)N[C@@H](CO)C(=O)N[C@H](C(=O)N[C@@H](CC(N)=O)C(=O)N[C@H](C(=O)NCC(=O)N[C@@H](CO)C(=O)N[C@@H](CC(N)=O)C(=O)N[C@H](C(=O)N[C@@H](Cc1ccc(O)cc1)C(N)=O)[C@@H](C)O)C(C)C)[C@@H](C)O
notes: synthetic analogue of human amylin; also called compound 83
B4: N^ε1-[(4S)-4-carboxy-4-(19-carboxynonadecanoylamino)butanoyl]-[Arg14,Arg17,Pro21,Pro27,Pro31]-h-amylin (peptide)
peptide: K([γGlu-C20 diacid])CNTATCATQRLARFLRHSSPNFGAIPSSTPVGSNTY-NH2
modifications: disulfide 2-7; N-terminus assumed
SMILES: CC[C@H](C)[C@H](NC(=O)[C@H](C)NC(=O)CNC(=O)[C@H](Cc1ccccc1)NC(=O)[C@H](CC(N)=O)NC(=O)[C@@H]1CCCN1C(=O)[C@H](CO)NC(=O)[C@H](CO)NC(=O)[C@H](Cc1c[nH]cn1)NC(=O)[C@H](CCCNC(=N)N)NC(=O)[C@H](CC(C)C)NC(=O)[C@H](Cc1ccccc1)NC(=O)[C@H](CCCNC(=N)N)NC(=O)[C@H](C)NC(=O)[C@H](CC(C)C)NC(=O)[C@H](CCCNC(=N)N)NC(=O)[C@H](CCC(N)=O)NC(=O)[C@@H](NC(=O)[C@H](C)NC(=O)[C@@H]1CSSC[C@H](NC(=O)[C@@H](N)CCCCNC(=O)CC[C@H](NC(=O)CCCCCCCCCCCCCCCCCCC(=O)O)C(=O)O)C(=O)N[C@@H](CC(N)=O)C(=O)N[C@@H]([C@@H](C)O)C(=O)N[C@@H](C)C(=O)N[C@@H]([C@@H](C)O)C(=O)N1)[C@@H](C)O)C(=O)N1CCC[C@H]1C(=O)N[C@@H](CO)C(=O)N[C@@H](CO)C(=O)N[C@H](C(=O)N1CCC[C@H]1C(=O)N[C@H](C(=O)NCC(=O)N[C@@H](CO)C(=O)N[C@@H](CC(N)=O)C(=O)N[C@H](C(=O)N[C@@H](Cc1ccc(O)cc1)C(N)=O)[C@@H](C)O)C(C)C)[C@@H](C)O
notes: synthetic analogue of human amylin; also called compound 63
B5: N^ε1-[(4S)-4-carboxy-4-(19-carboxynonadecanoylamino)butanoyl]-[Arg14,Arg17,Pro21,Pro27,Pro34]-h-amylin (peptide)
peptide: K([γGlu-C20 diacid])CNTATCATQRLARFLRHSSPNFGAIPSSTNVGPNTY-NH2
modifications: disulfide 2-7; N-terminus assumed
SMILES: CC[C@H](C)[C@H](NC(=O)[C@H](C)NC(=O)CNC(=O)[C@H](Cc1ccccc1)NC(=O)[C@H](CC(N)=O)NC(=O)[C@@H]1CCCN1C(=O)[C@H](CO)NC(=O)[C@H](CO)NC(=O)[C@H](Cc1c[nH]cn1)NC(=O)[C@H](CCCNC(=N)N)NC(=O)[C@H](CC(C)C)NC(=O)[C@H](Cc1ccccc1)NC(=O)[C@H](CCCNC(=N)N)NC(=O)[C@H](C)NC(=O)[C@H](CC(C)C)NC(=O)[C@H](CCCNC(=N)N)NC(=O)[C@H](CCC(N)=O)NC(=O)[C@@H](NC(=O)[C@H](C)NC(=O)[C@@H]1CSSC[C@H](NC(=O)[C@@H](N)CCCCNC(=O)CC[C@H](NC(=O)CCCCCCCCCCCCCCCCCCC(=O)O)C(=O)O)C(=O)N[C@@H](CC(N)=O)C(=O)N[C@@H]([C@@H](C)O)C(=O)N[C@@H](C)C(=O)N[C@@H]([C@@H](C)O)C(=O)N1)[C@@H](C)O)C(=O)N1CCC[C@H]1C(=O)N[C@@H](CO)C(=O)N[C@@H](CO)C(=O)N[C@H](C(=O)N[C@@H](CC(N)=O)C(=O)N[C@H](C(=O)NCC(=O)N1CCC[C@H]1C(=O)N[C@@H](CC(N)=O)C(=O)N[C@H](C(=O)N[C@@H](Cc1ccc(O)cc1)C(N)=O)[C@@H](C)O)C(C)C)[C@@H](C)O
notes: synthetic analogue of human amylin; also called compound 65

Each binder was assayed against T1, rat amylin receptor (rat calcitonin …) (assay: SPA competition with 125I-rat amylin, membranes of BHK cells with rat calcitonin receptor + rat RAMP3 (Assay VI)).

IC50	Binder
4.03 nM	B1
1.65 nM	B2
2.83 nM	B3
3.48 nM	B4
1.16 nM	B5

These binders were tested against T2, human calcitonin receptor (assay: ratio of binding IC50s: human calcitonin receptor over human amylin receptor (reference)).
In short: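 IC₅₀ values were derived by one-site competition analysis of SPA counts. Cell membranes (35 ng/μL) with SPA beads were incubated with test compounds for 120 min at 25° C in Hepes buffer, pH 7.4, containing CaCl2, MgCl₂, OA and Tween20.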

Ratio hCT/hAmylin binding	Binder
91.4	B1
46.1	B2
146	B3
157	B4
82.4	B5

What follows are binders tested against T3, rat calcitonin receptor (assay: SPA competition with 125I-calcitonin, membranes of BHK cells with rat calcitonin receptor (Assay VIII)).

IC50	Binder
442 nM	B1
35.5 nM	B2
140 nM	B3
124 nM	B4
108 nM	B5

These binders were tested against T3, rat calcitonin receptor (assay: ratio of binding IC50s: rat calcitonin receptor over rat amylin receptor (reference)).

Ratio rCT/rAmylin binding	Binder
110	B1
21.5	B2
49.7	B3
35.6	B4
93.2	B5
